The target of experiment [1] is xrcc4_human XRCC4 (UniProt Q13426).
Experiment [2] has the same target. The source holds these as a separate data set.

From IntAct's records for PubMed 21637298 come the findings set out here.

Sequence of xrcc4_human XRCC4 (Q13426 whole entry): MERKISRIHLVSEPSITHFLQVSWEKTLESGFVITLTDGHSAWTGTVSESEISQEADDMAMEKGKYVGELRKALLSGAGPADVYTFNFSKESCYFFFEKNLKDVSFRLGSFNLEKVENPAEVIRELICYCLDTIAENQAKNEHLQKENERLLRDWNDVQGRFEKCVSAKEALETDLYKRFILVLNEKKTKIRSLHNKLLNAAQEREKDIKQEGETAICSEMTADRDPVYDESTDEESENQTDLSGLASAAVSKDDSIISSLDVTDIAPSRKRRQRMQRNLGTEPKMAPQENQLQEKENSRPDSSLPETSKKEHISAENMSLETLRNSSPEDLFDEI

Turning to “Bifunctional polynucleotide phosphatase/kinase (Homo sapiens), Q96T60 S114A”, in the experiment with xrcc4_human XRCC4 [1], the “effect of a mutation on the interaction” value is reported as “decreasing interaction”. For the substance “Bifunctional polynucleotide phosphatase/kinase (Homo sapiens), Q96T60 S126A”, the “effect of a mutation on the interaction” value with xrcc4_human XRCC4 [2] was “decreasing interaction”.
